Assay results published in US20250320465A1 (FLAGSHIP PIONEERING INNOVATIONS V, published 2025).

Biological target: the molecule itself
Assay: structure of the VLP (self-assembly)

B1: Ring10-ORF1delCterm Helix (Ring10 ORF1 with a deletion of the C-terminus amino acids 610-672) VLP from Expi293 cells (other)
chain: MPWWYRRRSYNPWRRRNWFRRPRKTIYRRYRRRRRWVRRKPFYKRKIKRLNIVEWQPKSIRKCRIKGMLCLFQTTEDRLSYNFDMYEESIIPEKLPGGGGFSIKNISLYALYQEHIHAHNIFTHTNTDRPLARYTGCSLKFYQSKDIDYVVTYSTSLPLRSSMGMYNSMQPSIHLMQQNKLIVPSKQTQKRRKPYIKKHISPPTQMKSQWYFQHNIANIPLLMIRTTALTLDNYYIGSRQLSTNVTIHTLNTTYIQNRDWGDRNKTYYCQTLGTQRYFLYGTHSTAQNINDIKLQELIPLTNTQDYVQGFDWTEKDKHNITTYKEFLTKGAGNPFHAEWITAQNPVIHTANSPTQIEQIYTASTTTFQNKKLTDLPTPGYIFITPTVSLRYNPYKDLAERNKCYFVRSKINAHGWDPEQHQELINSDLPQWLLLFGYPDYIKRTQNFALVDTNYILVDHCPYTNPEKTPFIPLSTSFIEGRSPYSPSDTHEPDEEDQNRWYPCYQYQQESINSICLSGPGTPKIPKGITAEAKVKYSFNFKWGGDLPPMSTITNPTDQPTYVVPNNFNETTSLQNPTTRPEHFLYSFDERRGQLTEKATKRLLKDWETK
notes: also called Ring10-ORF1 delCterm-Helix (Δ610-672) (7052)
B1: binds.
